Reference: the nanobody polyreactivity screen of Harvey et al. (2022)

Test: yeast display, Sf9 membrane polyspecificity reagent, FACS + sequencing; frameworks hold sequencing errors
How it was run: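 Nanobodies came from a synthetic yeast display library in Saccharomyces cerevisiae BJ5465, induced with galactose for 36–48 hours and stained for 1 hour at 4 °C with 10% biotinylated, detergent-solubilized Sf9 membrane reagent. Cells were enriched on streptavidin microbeads and then FACS-sorted, with low and high (top ~1%) gates set on anti-HA fluorescence for expression and streptavidin fluorescence for reagent binding. Each polyreactivity label reflects the gate a clone came from. Genes were amplified by colony PCR, sequenced by MiSeq 2 × 250 and filtered by CDR length.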
With “QVQLVESGGGLVQAGGSLRLSCAASGSIFALYTMGWYRQAPGKEREMVAAISRRGGNKYYADSVKGRFTISRDNAKNTVYLQMNRLKPEDTAVYYCNADRLRSTHDYWGQGTQVSVSS” the “polyreactivity (PSR sort gate)” value was “high polyreactivity”. In the case of “EVQLVESGGGLVQAGGSLRLSCAASGRIFKYYTMGWYRQAPGKERELVAAISRDDSTNYADSVKGRFTISRDNAMNTVYLQMNSLKPEDTAVYYCAKGYHQYAGFYYWGQGTQVTVSS”, the “polyreactivity (PSR sort gate)” value was “high polyreactivity”. In the case of “QVQLVESGGGLVQAGGSLRLSCAASGFIFGPNAMGWYRQAPAKERELVAAISYSGGRTYYADSVKGRFTISRDNAKNTVYLQMNSLKPEDTSVYYCAADAYWYGRSYYWGQGTQVTVSS”, the “polyreactivity (PSR sort gate)” value was “high polyreactivity”. With “QVQLVESGGGLVQAGGSLRLSCAASGSTFTLYAMGWYRQAPGNERELVASITASDGSTSYADSVKGRFTISRDNAKNTVYLQMNSLKPEDTAVYYCAARYRVRGISYYYWGQGTQVTVSS” the “polyreactivity (PSR sort gate)” value was “low polyreactivity”. In the case of “QVQLVESGGGLVQAGGRLRLICAASGFNFKFYALGWYRQAPGKERELVAAITASSGRTYYADSVKGRFTISRDNAKNTVFLQMNSLKPEDTAVYYCAALGITYGRYDYWGQGTQVTVSS”, the “polyreactivity (PSR sort gate)” value was “high polyreactivity”. With “QVQLVESGGGLVQAGGSLRLSCAASGSIFVINPMGWYRQAPGNERELVAAISDSGTGTYYADSVKGRFTISRDNAKNTVYLQMNSLKPEDTAVYYCAADYYYRYRIYDYWGQGTQVTASS” the “polyreactivity (PSR sort gate)” value was “low polyreactivity”. With “QVQLVESGGGLVQAGGSLRLSCAASGGIFNSNAMGWYRQAPGKEREFVAAITRSGTSTYYADSVKGRFTISRDNAKNSVYLQMNSLKPEDTAVYYWAADYRYRRYRGHVSNLYYWGQGTQVTVSS” the “polyreactivity (PSR sort gate)” value was “low polyreactivity”. With “QVQLVESGGGLVQAGGSLRLSCAASGFTFLRYAMGWYRQAPGKERELVAAITRGGTTYYADSVKGRFTISRDNAKNTVYLQMNSLKPEDTAVYYCNTLTSYTRYNYWGQGTQVTVSS” the “polyreactivity (PSR sort gate)” value was “high polyreactivity”. In the case of “QVQLVESGGGLVQAGGSLRLSCAASGRTFYRNAMGWYRQAPGKERELVARITSGGSTNYADSVKGRFTISRDNAKNTVYLQMNSLKPEDTAVYYCAAVSRYYPYGYWGQGTQVNVSS”, the “polyreactivity (PSR sort gate)” value was “high polyreactivity”. For “QVQLLESCGGLVQAGGSLRLSCAASGRIFSYYVMGWYRQAPGKERELVAAITSGGSTNYADSVKGRFTISRDNAKISVYLQLTSLKPVDTAVYYFNRAYTYINRLYGYWGQGTEVTVSS”, the “polyreactivity (PSR sort gate)” value was “high polyreactivity”. With “QVQLVESGGGLVQAGGSLRLSCGAYGRTFRLYAMGWYRQAPAKERELVAAITRGGRTTYADSVKGRFTSSRDNAQNTVYLQMNSLKPEDTAVYYCAARYVERQTDYYYWGQGTQVTVSS” the “polyreactivity (PSR sort gate)” value was “low polyreactivity”. In the case of “QVQLVESGGGLVQAGGSLRISCAASGSTFDIYAMGWYRQAPGKERELVAAISNSGDTYYADSVKGRFTISRDNAKNTVYLQMNSLKPEDTAVYYCNADFHDWFDYWGQGTQVTVSS”, the “polyreactivity (PSR sort gate)” value was “high polyreactivity”. With “QVQLVESGGGLVQAGGSLRLSCAASGSIFGDNAMGWYRQAPGKERELVAAISIVGSTSYADSVKGRFTISRDNAKNTVYLPMNSLKPEDTAVYYCAAETVRSDTGFDYWGQGTQVTVSS” the “polyreactivity (PSR sort gate)” value was “low polyreactivity”. With “QVQLVESGGGLVQAGGSLRLSCAASGSTFQYYDMGWYRQAPGKERELVASITGSGDSTYYADSVKGRFTISRDNAKNTVYLQMNSLKPEDTAVYYWGQGTQVTVSS” the “polyreactivity (PSR sort gate)” value was “low polyreactivity”. For “QVQLVESGGGIDQAGGSLRLSCAASGRTFTSNAMGWYRQAPGKERELVAVIDRSGTSTYYADSVKGRFTISRDNAKNTVYLQMNSLKPEDTAVYYCAVRVRYSYTSRAKMYYWGQGTQVTVSS”, the “polyreactivity (PSR sort gate)” value was “high polyreactivity”. With “QVQLVESGGGLVQAGGSLRLSCAASGFTFSLYDMGWYRQAPGKERELVAAISSDGSTNYADSVKGRFTISRDNAKNTVYLQMNSLKPEDTAVYYCAADETFLSYWLNYWGQGTQVTLSS” the “polyreactivity (PSR sort gate)” value was “low polyreactivity”. In the case of “QVQLVESGGGLVQAGGSLRLSCAASGRTFARNALGWYRQAPGKERELVAAITKGGGSTYYADSVKGRFTISRDNAKNTVYLQMNSLKPEDTAVYYCDAYKPSTRRYDYWGQGTQVTVSS”, the “polyreactivity (PSR sort gate)” value was “high polyreactivity”. For “QVQLEESGGGLFQAGGSLRLRCAASGSIFHINAMGWYRQAPGKERELVADISHRGGSTYYADSVKGRFTISRDNAKNTVYLQMNSLKPEDTAVYYCAVVHVFYAVYYFSFYTYDYWGQGTQVTVSS”, the “polyreactivity (PSR sort gate)” value was “low polyreactivity”. With “QVQLVESGGGLVQAGGSLRLSCAASGFIFTRNVMGWYRQAPGKERELVAAISSGGRTYYADSVKGRFTISRDNAKNTVYLQMNRLKPEDTAVYYCSIVSKFTGDYGYWGQGTQVTVSS” the “polyreactivity (PSR sort gate)” value was “high polyreactivity”. With “QVQLVESGGGLVQAGGSLRLSCAASGRIFYAYTMGWYRQAPGKERELVAAISGSGSTYYADSVKGRFTISRDNAKNTVYLQMNSLKPEDTAVYYCAADVTGGRKYDYWGQGTQVTLSS” the “polyreactivity (PSR sort gate)” value was “low polyreactivity”. With “QVQLVESGGGLVQAGGSLRLSCAASGFIFFGYAMGWYRQAPGKEMELVAAITSGGSTYYADSVKGRFTISRDNAKNTVYLQMNSLKPEDSAVYYCAAVRWYGSKRYGYWGQGTQVTVSS” the “polyreactivity (PSR sort gate)” value was “high polyreactivity”. For “QVQLVESGGGLVQPGGSLRLSCAAYGLTFYGYTMGWYRQAPGKERELVASITRSGGSTYADSVKGRFTISRDNAKNTVYLQMNSLKPEDTAVFYCAAVYRARGYYYWGQGTQVTVSS”, the “polyreactivity (PSR sort gate)” value was “high polyreactivity”. In the case of “QVQLVESGGGLVQAGGSLRISCAASGSTFYFNAMGWYRQAPGKERELVAGISSGGSTYYADSVKWRFTISRDNAKTTVYLQMNSLKPEDTAVYYCAATWLVERPFSYTEYGYWGQGTQVTVSS”, the “polyreactivity (PSR sort gate)” value was “low polyreactivity”. In the case of “QVQLVESGGGLVQAGGSLRLSCAASGRTFYIYAMGWYRQAPGKERELVAAINSGGSTYYADSVKGRFTISRDNAKNTVYLQMNSLKPEDTAVYYCAATKGYYFFGDRDYWGQGTQVTVSS”, the “polyreactivity (PSR sort gate)” value was “low polyreactivity”. With “QVQLVESGGGLVQAGGSLRLSCAASGRTFFGYAMGWCRQARGKEREFVAAISGSGGSTYYADSVKGRFTISRDYAKNTVYFKMNSLKPEDTAVYYCNAEYWGEYYYFGQGTQVTVSS” the “polyreactivity (PSR sort gate)” value was “low polyreactivity”. For “QVQLVESGGGLVQAGGSLRLSCAASGLTFRYYAMGWYRQAPGKERELVAAITGSGGSTYYADSVKGRFTISRDNAKNTVYLQMNSLKPEDTAVYYCADVIAEYDYFSYYYEYDYWGQGTQVTVSS”, the “polyreactivity (PSR sort gate)” value was “high polyreactivity”. With “QVQLVESGGGLVQAGGSLRLSCAASGRMFKINAMGCYRQAPGKERELVASIRTSSGSTYSADSVKGRFTLSRDNAKNTVYLQMNSLKPEDTAVYYCATQYRYYNHFVTPFTRYGYWGQGTQVTVSS” the “polyreactivity (PSR sort gate)” value was “high polyreactivity”. With “QVQLVESGVGLVQAGGSLRLSCASSGFIFDTYAMGLYRQAPGKERELVAVISSGGSTYYADSVKGRFTISRDNAKNTVYLQMNSLKPEDTAVYYCAADSGYLGIYGDEYSWGQGTQVTVSS” the “polyreactivity (PSR sort gate)” value was “low polyreactivity”. For “QVQLVESGGGLVQAGGSLRLSCAASGLIFPGYAMGWYRQAPGKERELVAAIDWSGGSTYYADSVKGRFTISRDYAKNTVYLQMNSLKPEDTAVYDCNADGYLSYAFDYWGQGTQVTVSS”, the “polyreactivity (PSR sort gate)” value was “low polyreactivity”. For “QVQLVESGGGLVQAGGSLRLSCAASGRTFYYYGMGWYRQAPGKERELVAAINRGDSTKYADSVKGRFTISRDNAKNTVYLQMNSLKPEDTAVYYCNARLRASFARFIYEYWGQGTQVTVSS”, the “polyreactivity (PSR sort gate)” value was “low polyreactivity”. In the case of “QVQLVESGGGLVQAGGSLRLSCAASGRIFGRYAMGWSRQAPGKERELVAAIRWSVGSTYYADSVKGRFTISRDNAKNTVYLQMNSLKPEDTAVYYCAADIRQSIMDYWGQGTQVTVSS”, the “polyreactivity (PSR sort gate)” value was “high polyreactivity”. In the case of “QVQLVESGGGLVQAGGSLRLSCAASGRTFYKYAMGWYRQAPAKESELVAAISTRGTNTYYADSVKGRFTISRDYAKNTVYLQMKSLKPEDTAVYYCAAVTASPYSHDYWGQGTQVTVSS”, the “polyreactivity (PSR sort gate)” value was “high polyreactivity”. For “QYQLVESGGGLVQAGGSLRLSCAASGRTFYYNAMGWYRQAPGKETELVASITITDSTNYSDSVKGRFTISRDNANNTVYLQMNSLKPEDTAVYYCAKRGLGTSFYLSDYWGQGTQVTVSS”, the “polyreactivity (PSR sort gate)” value was “low polyreactivity”. In the case of “QVQLVESGGGLVQAGGSLRLSCAASGIFGGYAMGWYRQAPGKERELVAAISYSGGTTYYADSVKGRFTISRDNAKNTVYLQMNSLKPEDTAVYYCNADDPDYLVSYRYDYWGQGTQVTVSS”, the “polyreactivity (PSR sort gate)” value was “low polyreactivity”. With “QVQLVESGGGLVQAGGSLRLSCAASGRTFWGYAMGWYRQAPGKERELVAAISWSGTSTYYADSVKGRFTISRDNAKNTVYLQMNSLKPEDTAVYYCARAVNDWRRKYNYWGQGTQVTVSS” the “polyreactivity (PSR sort gate)” value was “high polyreactivity”. In the case of “QVQLVESGGGLVQAGGSLRLSCAASGLTFHQNAMGWYRKAPGKDRELVAAISRRGGSTYYADSVKGRFTFSRDNAKNTVYLQMNSLKPEDTAVYYSNTRGKSGLWCYNYWGQGTQVTVSS”, the “polyreactivity (PSR sort gate)” value was “high polyreactivity”. In the case of “QVQLVESGGGLVQAGGSLRLSCAASGSILGYYVMGWYRQAPGKERELVAAISWSSGSTYYADSVKGRFTISRDNAKNTVYLQMNSLKPEDTAVYYCNASNVYFWFVTLEFDYWGQGTQVTVSS”, the “polyreactivity (PSR sort gate)” value was “low polyreactivity”. With “QVQLVESRGGLVQAGGSLRLSCAASGRINSRYAMGLSRQEPGKERELVAAISWNGGSTYYADSVKGRFTISRDNAMNTVYFQMNSLKPEDTAVYYCAAYRPGPYAAYGYWGQGTQVTVSS” the “polyreactivity (PSR sort gate)” value was “high polyreactivity”. In the case of “QVQLLESGRGLVQAGGSLRLSCAASGRTFVGYAMVWYRKAHGKERELVAGITASGGTTYYADSVKGRFTISRDNAKNTVYLQMNSLKPEDTAVYYCATTTTRYRYKKNYYWGQGIQVTVSS”, the “polyreactivity (PSR sort gate)” value was “high polyreactivity”. In the case of “QVQLVESGGGLVEAGGSLRLSCAASGRIFTGYAMGWYRQAPGKERELVAAISDGGSTNYADSVKGRFTISRDNAKNTVYLQMNSLKPEDTAVYYCAADGHSSDQYDYWGPGTQVTVSS”, the “polyreactivity (PSR sort gate)” value was “low polyreactivity”. For “HVQLVESGGGLVQAGASLRLICAASGRIFWGYAMGWSRHAPGKERELVAGITYSGGSTYYADSVKGRFTISRDNAKNTVYLQMNSLKPEDTADYYCAAAKSYRSGSWYEYWGQGTQVTVSS”, the “polyreactivity (PSR sort gate)” value was “high polyreactivity”. With “QVQLVESGGGLVQAVRSRRLSSAASGSIFYFYPMGWYRQAPGKDREFVAAISSGGSTYYSDSVKGRFTNSRDNAKYTVYLQMNSLKPEDTAVYYCAAVSLYYRYDFWGQGTQVTVSS” the “polyreactivity (PSR sort gate)” value was “low polyreactivity”. For “QVQLVESGGGLVQAGGSLRLSCAASGLTFRLNAMGWYRHAPGKERELVAAITRGGRTNYADSVKGRFTISRDNAKNTVYLQMNSLKPEDTAVYYCAARYVERHTDYYYWGQGTQVTVSS”, the “polyreactivity (PSR sort gate)” value was “low polyreactivity”.
